How the values were obtained:
[1] = target: human FAPα-His tag (Sino biological) (human) (UniProt Q12884); assay: competitive ELISA on coated human FAPα; competitor (detected): FAP-G14-Bio
[2] = target: human FAPα on CHO-K1-hFAPα cells (human) (UniProt Q12884); assay: flow cytometry on CHO-K1-hFAPα cells
[3] = target: human FAPα-His tag (Sino biological) (human) (UniProt Q12884); assay: competitive ELISA on coated human FAPα; competitor (detected): FAP-J40-Bio
[4] = target: human FAPα-His tag (Sino biological) (human) (UniProt Q12884); assay: competitive ELISA on coated human FAPα; biotinylated mAb alone, no competing Ab (row '0')
[5] = target: human FAPα-His tag (Sino biological) (human) (UniProt Q12884); assay: competitive ELISA on coated human FAPα; competitor (detected): FAP-I30-Bio
[6] = target: human FAPα-His tag (Sino biological) (human) (UniProt Q12884); assay: competitive ELISA on coated human FAPα; competitor (detected): FAPα (BMK)-Bio
[7] = target: human FAPα-His tag (Sino biological) (human) (UniProt Q12884); assay: competitive ELISA on coated human FAPα; competitor (detected): FAP-I37-Bio
[8] = target: human FAPα-His tag (Sino biological) (human) (UniProt Q12884); assay: competitive ELISA on coated human FAPα; competitor (detected): FAP-G52-Bio
[9] = target: human FAPα-His tag (Sino biological) (human) (UniProt Q12884); assay: ELISA, coated human FAPα-His
[10] = target: human FAPα-His tag (Sino biological) (human) (UniProt Q12884); assay: SPR (Biacore T200), mAb captured on Protein A chip, human FAPα-His as analyte
[11] = target: mouse FAPα-His protein (mouse) (UniProt P97321); assay: ELISA, coated mouse FAPα-His
Chain of mouse FAPα-His protein (mouse) (P97321 26-761 limits assumed): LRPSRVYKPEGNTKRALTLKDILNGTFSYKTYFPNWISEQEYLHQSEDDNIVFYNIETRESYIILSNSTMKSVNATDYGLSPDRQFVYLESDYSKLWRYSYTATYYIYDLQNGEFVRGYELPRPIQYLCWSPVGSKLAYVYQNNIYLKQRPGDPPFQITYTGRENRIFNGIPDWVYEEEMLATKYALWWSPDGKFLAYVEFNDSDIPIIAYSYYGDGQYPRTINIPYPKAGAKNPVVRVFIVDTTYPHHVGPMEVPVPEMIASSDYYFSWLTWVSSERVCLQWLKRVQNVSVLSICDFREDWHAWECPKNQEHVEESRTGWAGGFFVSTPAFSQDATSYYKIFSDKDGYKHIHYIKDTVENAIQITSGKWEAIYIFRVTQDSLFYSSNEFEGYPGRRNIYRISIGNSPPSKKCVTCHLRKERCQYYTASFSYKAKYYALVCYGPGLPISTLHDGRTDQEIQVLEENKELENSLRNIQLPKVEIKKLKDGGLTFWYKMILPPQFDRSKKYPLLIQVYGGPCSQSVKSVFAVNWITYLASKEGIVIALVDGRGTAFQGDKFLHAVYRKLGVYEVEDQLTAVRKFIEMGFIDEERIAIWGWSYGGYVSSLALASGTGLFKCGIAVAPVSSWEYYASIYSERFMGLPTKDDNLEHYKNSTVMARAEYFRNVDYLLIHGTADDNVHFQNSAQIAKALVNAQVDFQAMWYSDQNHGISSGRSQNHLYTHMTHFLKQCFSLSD

[12] = target: human FAPα-His tag (Sino biological) (human) (UniProt Q12884); assay: competitive ELISA on coated human FAPα; competitor (detected): FAP-I38-Bio
[13] = target: human FAPα on CHO-K1-hFAPα cells (human) (UniProt Q12884); assay: flow cytometry on CHO-K1-hFAPα cells (MFI of PE); set-up: unit not given beside the values

Chain of human FAPα-His tag (Sino biological) (human) (Q12884 26-760 limits assumed): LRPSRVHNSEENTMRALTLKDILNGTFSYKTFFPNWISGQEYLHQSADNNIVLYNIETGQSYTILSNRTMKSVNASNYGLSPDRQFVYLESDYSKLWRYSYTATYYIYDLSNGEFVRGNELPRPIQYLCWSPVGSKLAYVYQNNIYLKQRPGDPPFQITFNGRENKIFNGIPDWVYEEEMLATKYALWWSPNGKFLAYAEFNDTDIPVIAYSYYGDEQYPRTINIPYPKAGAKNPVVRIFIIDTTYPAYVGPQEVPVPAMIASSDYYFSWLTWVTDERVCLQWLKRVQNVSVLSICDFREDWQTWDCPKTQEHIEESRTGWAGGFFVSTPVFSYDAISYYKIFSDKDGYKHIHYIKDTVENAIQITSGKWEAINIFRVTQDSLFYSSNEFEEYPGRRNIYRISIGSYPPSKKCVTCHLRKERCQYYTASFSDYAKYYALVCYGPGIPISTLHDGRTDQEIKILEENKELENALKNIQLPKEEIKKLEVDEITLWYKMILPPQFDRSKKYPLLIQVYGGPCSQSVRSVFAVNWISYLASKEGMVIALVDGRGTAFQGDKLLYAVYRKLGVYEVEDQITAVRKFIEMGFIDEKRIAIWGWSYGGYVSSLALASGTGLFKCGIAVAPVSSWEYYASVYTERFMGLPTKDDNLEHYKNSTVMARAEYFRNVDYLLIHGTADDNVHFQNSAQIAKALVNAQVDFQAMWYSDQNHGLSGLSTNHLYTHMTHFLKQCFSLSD
Chain of human FAPα on CHO-K1-hFAPα cells (human) (Q12884 whole entry): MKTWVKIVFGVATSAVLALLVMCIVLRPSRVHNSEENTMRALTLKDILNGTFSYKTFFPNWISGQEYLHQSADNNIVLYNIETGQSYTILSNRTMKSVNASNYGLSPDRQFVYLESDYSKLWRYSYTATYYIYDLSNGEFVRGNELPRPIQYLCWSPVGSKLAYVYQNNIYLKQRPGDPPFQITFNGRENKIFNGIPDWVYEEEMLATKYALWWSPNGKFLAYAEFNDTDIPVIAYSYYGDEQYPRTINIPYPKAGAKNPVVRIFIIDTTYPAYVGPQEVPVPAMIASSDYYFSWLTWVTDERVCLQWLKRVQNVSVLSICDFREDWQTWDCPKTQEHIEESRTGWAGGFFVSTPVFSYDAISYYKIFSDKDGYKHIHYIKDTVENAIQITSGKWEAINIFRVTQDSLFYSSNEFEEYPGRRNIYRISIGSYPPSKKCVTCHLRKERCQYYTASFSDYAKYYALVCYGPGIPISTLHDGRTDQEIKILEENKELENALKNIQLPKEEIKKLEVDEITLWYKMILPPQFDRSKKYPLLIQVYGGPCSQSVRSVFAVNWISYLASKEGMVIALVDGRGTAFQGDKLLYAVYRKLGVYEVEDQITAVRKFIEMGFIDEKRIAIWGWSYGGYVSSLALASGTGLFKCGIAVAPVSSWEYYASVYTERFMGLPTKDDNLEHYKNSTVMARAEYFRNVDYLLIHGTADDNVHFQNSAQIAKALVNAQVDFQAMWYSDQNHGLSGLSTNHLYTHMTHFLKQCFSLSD

“FAP-4B9 clone from Roche (FAPα-BMK) (antibody)” gave an OD 450 nm [1] of 0.135 OD 450 nm, an EC50 [2] of 0.043 ng/mL and an OD 450 nm [3] of 0.179 OD 450 nm. For the same substance, the OD 450 nm [4] was 1.26 OD 450 nm, the OD 450 nm [5] was 0.155 OD 450 nm and the OD 450 nm [6] was 0.171 OD 450 nm. It also gave an OD 450 nm [7] of 0.23 OD 450 nm, an OD 450 nm [8] of 0.169 OD 450 nm and an EC50 [9] of 5.55 ng/mL. For the same substance, the Kd [10] was 6.94 nM, the koff [10] was 0.000208 s⁻¹ and the kon [10] was 30000 M⁻¹ s⁻¹. For the same substance, the EC50 [11] was 10.3 ng/mL, the OD 450 nm [12] was 0.265 OD 450 nm and the Cmax [13] was 424.
